Measured values as given in the supplement of paper PMC5998384.

Experiments:
HeLa Kyoto [1] = assay: solubility in G1/S (NP-40 vs SDS abundance) (log2 ratio); higher = more soluble; conditions: cell cycle stage: G1/S
HeLa Kyoto [2] = assay: solubility change mitosis vs G1/S (difference of NP-40 vs SDS log2 ratios) (log2 ratio difference); higher = more soluble in mitosis
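For solubility change mitosis vs G1/S (difference of NP-40 vs SDS log2 ratios) in this document: synchronized HeLa Kyoto cells (double thymidine block for G1/S, nocodazole release for mitosis), protein amounts in NP-40 versus SDS lysates quantified by mass spectrometry, three biological replicates.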
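For solubility in G1/S (NP-40 vs SDS abundance) in this document: HeLa Kyoto cells arrested at G1/S by double thymidine block, proteins quantified by TMT10plex mass spectrometry in mild NP-40 versus SDS extracts, three biological replicates.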

Row | Substance | solubility in G1/S (log2) (HeLa Kyoto [1]) | solubility change mitosis (log2) (HeLa Kyoto [2])
1 | MATFVSELEAAKKNLSEALGDNVKQYWANLKLWFKQKISKEEFDLEAHRLLTQDNVHSHNDFLLAILTRCQILVSTPDGAGSLPWPGGSAAKPGKPKGKKKLSSVRQKFDHRFQPQNPLSGAQQFVAKDPQDDDDLKLCSHTMMLPTRGQLEGRMIVTAYEHGLDNVTEEAVSAVVYAVENHLKDILTSVVSRRKAYRLRDGHFKYAFGSNVTPQPYLKNSVVAYNNLIESPPAFTAPCAGQNPASHPPPDDAEQQAALLLACSGDTLPASLPPVNMYDLFEALQVHREVIPTHTVYALNIERIITKLWHPNHEELQQDKVHRQRLAAKEGLLLC [TADA1] | 0.289 | -0.0314
2 | MQRAVPEGFGRRKLGSDMGNAERAPGSRSFGPVPTLLLLAAALLAVSDALGRPSEEDEELVVPELERAPGHGTTRLRLHAFDQQLDLELRPDSSFLAPGFTLQNVGRKSGSETPLPETDLAHCFYSGTVNGDPSSAAALSLCEGVRGAFYLLGEAYFIQPLPAASERLATAAPGEKPPAPLQFHLLRRNRQGDVGGTCGVVDDEPRPTGKAETEDEDEGTEGEDEGAQWSPQDPALQGVGQPTGTGSIRKKRFVSSHRYVETMLVADQSMAEFHGSGLKHYLLTLFSVAARLYKHPSIRNSVSLVVVKILVIHDEQKGPEVTSNAALTLRNFCNWQKQHNPPSDRDAEHYDTAILFTRQDLCGSQTCDTLGMADVGTVCDPSRSCSVIEDDGLQAAFTTAHELGHVFNMPHDDAKQCASLNGVNQDSHMMASMLSNLDHSQPWSPCSAYMITSFLDNGHGECLMDKPQNPIQLPGDLPGTSYDANRQCQFTFGEDSKHCPDAASTCSTLWCTGTSGGVLVCQTKHFPWADGTSCGEGKWCINGKCVNKTDRKHFDTPFHGSWGMWGPWGDCSRTCGGGVQYTMRECDNPVPKNGGKYCEGKRVRYRSCNLEDCPDNNGKTFREEQCEAHNEFSKASFGSGPAVEWIPKYAGVSPKDRCKLICQAKGIGYFFVLQPKVVDGTPCSPDSTSVCVQGQCVKAGCDRIIDSKKKFDKCGVCGGNGSTCKKISGSVTSAKPGYHDIITIPTGATNIEVKQRNQRGSRNNGSFLAIKAADGTYILNGDYTLSTLEQDIMYKGVVLRYSGSSAALERIRSFSPLKEPLTIQVLTVGNALRPKIKYTYFVKKKKESFNAIPTFSAWVIEEWGECSKSCELGWQRRLVECRDINGQPASECAKEVKPASTRPCADHPCPQWQLGEWSSCSKTCGKGYKKRSLKCLSHDGGVLSHESCDPLKKPKHFIDFCTMAECS [ADAMTS1] | -0.34 | -0.192
3 | MGMACLTMTEMEGTSTSSIYQNGDISGNANSMKQIDPVLQVYLYHSLGKSEADYLTFPSGEYVAEEICIAASKACGITPVYHNMFALMSETERIWYPPNHVFHIDESTRHNVLYRIRFYFPRWYCSGSNRAYRHGISRGAEAPLLDDFVMSYLFAQWRHDFVHGWIKVPVTHETQEECLGMAVLDMMRIAKENDQTPLAIYNSISYKTFLPKCIRAKIQDYHILTRKRIRYRFRRFIQQFSQCKATARNLKLKYLINLETLQSAFYTEKFEVKEPGSGPSGEEIFATIIITGNGGIQWSRGKHKESETLTEQDLQLYCDFPNIIDVSIKQANQEGSNESRVVTIHKQDGKNLEIELSSLREALSFVSLIDGYYRLTADAHHYLCKEVAPPAVLENIQSNCHGPISMDFAISKLKKAGNQTGLYVLRCSPKDFNKYFLTFAVERENVIEYKHCLITKNENEEYNLSGTKKNFSSLKDLLNCYQMETVRSDNIIFQFTKCCPPKPKDKSNLLVFRTNGVSDVPTSPTLQRPTHMNQMVFHKIRNEDLIFNESLGQGTFTKIFKGVRREVGDYGQLHETEVLLKVLDKAHRNYSESFFEAASMMSKLSHKHLVLNYGVCVCGDENILVQEFVKFGSLDTYLKKNKNCINILWKLEVAKQLAWAMHFLEENTLIHGNVCAKNILLIREEDRKTGNPPFIKLSDPGISITVLPKDILQERIPWVPPECIENPKNLNLATDKWSFGTTLWEICSGGDKPLSALDSQRKLQFYEDRHQLPAPKWAELANLINNCMDYEPDFRPSFRAIIRDLNSLFTPDYELLTENDMLPNMRIGALGFSGAFEDRDPTQFEERHLKFLQQLGKGNFGSVEMCRYDPLQDNTGEVVAVKKLQHSTEEHLRDFEREIEILKSLQHDNIVKYKGVCYSAGRRNLKLIMEYLPYGSLRDYLQKHKERIDHIKLLQYTSQICKGMEYLGTKRYIHRDLATRNILVENENRVKIGDFGLTKVLPQDKEYYKVKEPGESPIFWYAPESLTESKFSVASDVWSFGVVLYELFTYIEKSKSPPAEFMRMIGNDKQGQMIVFHLIELLKNNGRLPRPDGCPDEIYMIMTECWNNNVNQRPSFRDLALRVDQIRDNMAG [JAK2] | -0.224 | 0.0233
4 | MATVGAPRHFCRCACFCTDNLYVARYGLHVRFRGEQQLRRDYGPILRSRGCVSAKDFQQLLAELEQEVERRQRLGQESAARKALIASSYHPARPEVYDSLQDAALAPEFLAVTEYSVSPDADLKGLLQRLETVSEEKRIYRVPVFTAPFCQALLEELEHFEQSDMPKGRPNTMNNYGVLLHELGLDEPLMTPLRERFLQPLMALLYPDCGGGRLDSHRAFVVKYAPGQDLELGCHYDNAELTLNVALGKVFTGGALYFGGLFQAPTALTEPLEVEHVVGQGVLHRGGQLHGARPLGTGERWNLVVWLRASAVRNSLCPMCCREPDLVDDEGFGDGFTREEPATVDVCALT [OGFOD2] | 0.182 | 0.112
5 | MDGTEGSAGQPGPAERSHRSSVSSVGARAADVLVYLADDTVVPLAVENLPSLSAHELHRAVREVLQLPDIALDVFALWLVSPLLEVQLKPKHQPYKLGRQWPELLLRFTSAPDDDVAMDEPFLQFRRNVFFPKRRELQIHDEEVLRLLYEEAKGNVLAARYPCDVEDCEALGALVCRVQLGPYQPGRPAACDLREKLDSFLPAHLCKRGQSLFAALRGRGARAGPGEQGLLNAYRQVQEVSSDGGCEAALGTHYRAYLLKCHELPFYGCAFFHGEVDKPAQGFLHRGGRKPVSVAISLEGVHVIDSREKHVLLGLRFQELSWDHTSPEEEEPILWLEFDGDSEGTPVNKLLKIYSKQAELMSSLIEYCIELSQAAEPAGPQDSATGSPSDPSSSLAPVQRPKLRRQGSVVSSRIQHLSTIDYVEDGKGIRRVKPKRTTSFFSRQLSLGQGSYTVVQPGDSLEQG [FRMD8] | 0.248 | -0.0705
6 | PTPN6 | 0.166 | 0.0101
7 | MGLYGQACPSVTSLRMTSELESSLTSMDWLPQLTMRAAIQKSDATQNAHGTGISKKNALLDPNTTLDQEEVQQHKDGKPPYSYASLITFAINSSPKKKMTLSEIYQWICDNFPYYREAGSGWKNSIRHNLSLNKCFLKVPRSKDDPGKGSYWAIDTNPKEDVLPTRPKKRARSVERASTPYSIDSDSLGMECIISGSASPTLAINTVTNKVTLYNTDQDGSDSPRSSLNNSLSDQSLASVNLNSVGSVHSYTPVTSHPESVSQSLTPQQQPQYNLPERDKQLLFSEYNFEDLSASFRSLYKSVFEQSLSQQGLMNIPSESSQQSHTSCTYQHSPSSTVSTHPHSNQSSLSNSHGSGLNTTGSNSVAQVSLSHPQMHTQPSPHPPHRPHGLPQHPQRSPHPAPHPQQHSQLQSPHPQHPSPHQHIQHHPNHQHQTLTHQAPPPPQQVSCNSGVSNDWYATLDMLKESCRIASSVNWSDVDLSQFQGLMESMRQADLKNWSLDQVQFADLCSSLNQFFTQTGLIHSQSNVQQNVCHGAMHPTKPSQHIGTGNLYIDSRQNLPPSVMPPPGYPHIPQALSTPGTTMAGHHRAMNQQHMMPSQAFQMRRSLPPDDIQDDFDWDSIV [FOXJ3] | 0.664 | 0.0825
8 | MSFKREGDDWSQLNVLKKRRVGDLLASYIPEDEALMLRDGRFACAICPHRPVLDTLAMLTAHRAGKKHLSSLQLFYGKKQPGKERKQNPKHQNELRREETKAEAPLLTQTRLITQSALHRAPHYNSCCRRKYRPEAPGPSVSLSPMPPSEVKLQSGKISREPEPAAGPQAEESATVSAPAPMSPTRRRALDHYLTLRSSGWIPDGRGRWVKDENVEFDSDEEEPPDLPLD [SCNM1] | 0.0519 | 0.462
9 | MADAAATAGAGGSGTRSGSKQSTNPADNYHLARRRTLQVVVSSLLTEAGFESAEKASVETLTEMLQSYISEIGRSAKSYCEHTARTQPTLSDIVVTLVEMGFNVDTLPAYAKRSQRMVITAPPVTNQPVTPKALTAGQNRPHPPHIPSHFPEFPDPHTYIKTPTYREPVSDYQVLREKAASQRRDVERALTRFMAKTGETQSLFKDDVSTFPLIAARPFTIPYLTALLPSELEMQQMEETDSSEQDEQTDTENLALHISMEDSGAEKENTSVLQQNPSLSGSRNGEENIIDNPYLRPVKKPKIRRKKSLS [TAF8] | 0.116 | 0.0206
